Results taken from patent US8765908B2, “Compositions for improving bone mass” (The UAB Research Foundation, priority 2010, dated 2014).
Positions count from the first letter of the chain named. “Also recorded” adds a separate entry of the source.

What was measured:
[1] = biological target: T1, Myc-mRANK (RANK fragment with IVVY to IVAF inactivating mutation) (Mus musculus, UniProt O35305, V537A/Y538F); test: Co-immunoprecipitation with Myc-mRANK in 293T cells; assay type: binding; settings: cotransfection with Myc-mRANK; IP anti-Myc, WB anti-HA
T1 construct: expressed in transfected cells; host or cells: 293T cells
T1 sequence (O35305 498-556 V537A/Y538F): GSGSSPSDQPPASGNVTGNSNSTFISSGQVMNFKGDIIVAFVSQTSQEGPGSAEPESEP
Description: (§1) 293T cells were cultured in DMEM containing 10% heat-inactivated fetal bovine serum (HI-FBS) and penicillin/streptomycin (culturing medium). Cells grown near confluence were lifted and replated at density of 5×10^6 cells/dish in 100-mm tissue culture dishes the day before transfection. Total 8 μg plasmid was transfected into 293T cells using Lipofectamine™ in combination of Plus® Reagent (Invitrogen). Briefly, 8 μg plasmid was mixed with 20 μl Plus®Reagent before addition of 350 μl DMEM. The mixture was incubated at RT for 15 min and then added with 380 μl freshly prepared Lipofectamine™ Reagent (Lipofectamine™ Reagent+350 μl DMEM). The complete transfection solution was further incubated at RT for 15 min before being added to one dish of 293T cells which was washed with DMEM twice immediately before the addition of the solution. The cells were incubated at 37° C. for 3 hrs before addition of 6.5 ml culturing medium and the incubation continued overnight. Next day, the medium containing the DNA/transfection reagents was replaced with fresh culturing medium. […]
Next, it was determined whether the IVVY (SEQ ID NO:4) motif in the RANK region is specifically responsible for interaction with RYBP. […] Cell lysates were coimmunoprecipitated with anti-Myc antibody and then the precipitates were analyzed by Western analysis with anti-HA antibody.

[2] = biological target: T2, RANK fragment 498-556 (Myc-RANK) (Mus musculus, UniProt O35305); test: Co-immunoprecipitation with Myc-RANK in 293T cells; assay type: binding; settings: cotransfection with Myc-RANK in 293T cells; IP then Western blot
T2 construct: expressed in transfected cells; host or cells: 293T cells
T2 sequence (O35305 498-556): T1 sequence (O35305 498-556 V537A/Y538F) with A40V, F41Y
Description: as §1, with “overnight.” for “overnight. Next day, the medium containing the DNA/transfection reagents was replaced with fresh culturing medium.”
As such, the potential of RYBP as a signaling molecule interacting with the IVVY (SEQ ID NO:4) motif was examined to regulate osteoclastogenesis. […] It was then determined whether the interaction between the RANK fragment and RYBP seen in yeast also occurs in mammalian cells. the cDNA region encoding the bait was cloned into pCMV-Myc vector (BD Biosciences Clontech) to generate Myc-RANK (FIG. 1C). […]

interaction with IVVY-mutated RANK (co-IP band) [1]: failed to do so
Substance: HA-RYBP: full-length RYBP cDNA subcloned into pCMV-HA vector
interaction with RANK (co-IP band) [2]: gave rise to a positive band; also recorded: yielded a positive band
